In paper doi:10.1101/2021.12.03.471045 (2021):

Key:
[1] = biological target: T1, early pandemic (Wuhan) SARS-CoV-2 RBD (SARS-CoV-2, UniProt P0DTC2); test: SPR
[2] = biological target: T1, early pandemic (Wuhan) SARS-CoV-2 RBD; test: SPR; remark: listed apart in the source

B1: Beta-55 mAb (IgG) (antibody, V domains shown)
VH: QVQLQESGPGLVKPSETLSLTCTVSGDSISSSRYYWGWIRQPPGKGLEWIGTFYYSGITYYNPSLKSRVTIFVDTSKNQFSLKLSSVTAADTAVYYCARPRPPDYYDNSGALLFDIWGQGTMVTVSS
VL: AIRMTQSPSTLSASVGDRVTIACRASQSISAWLAWYQQKPGKAPKLLIYKASSLESGVPSRFSGSGSGTEFTLTINSLQPDDFATYYCQQYISSSPWTFGQGTKVEIK
[1]
  Kd: 177 pM
[2]
  koff: 0.00018 s⁻¹

B2: EY6A mAb (IgG) (antibody, V domains shown)
VH: EVQLVESGGGVVQPGRSLRLSCAASAFTFSSYDMHWVRQAPGKGLEWVAVISYDGSNKYYADSVKGRFTISRDNSKNTLYLQMNSLRAEDTAVYYCAKDGGKLWVYYFDYWGQGTLVTVSS
VL: not shown
[2]
  koff: 0.0048 s⁻¹
